Target: HLA-B*44:05 (human)
Assay: flow cytometry on cells; peptide receptivity of surface HLA-B on TAP-sufficient CEM cells: 100 μM peptide in medium at 26°C for 2h, then 20 μg/ml brefeldin A at 37°C for 2h; W6/32 staining, signal of cells without exogenous HLA-B subtracted; read-out (MFI with peptide - MFI without peptide)/MFI with peptide*100

## EEFGRAFSF [… (EF10), B*44:05-restricted epitope]
  percent of cell surface HLA-B that is peptide receptive: 5%

Source: paper PMC6056074
